In IntAct's records for PubMed 9428767:

B1: Serine/threonine-protein kinase STE20 (Saccharomyces cerevisiae), Q03497 (parent)
chain: MSNDPSAVSELPDKDSLDNGISNDNERAMGGNGDGGDGLRLPRTTGTLNVNALQKGTNAAHEAGGYKSMDPAKNAETTNDDDNNVVSLDDPIQFTRVSSSSVISGMSSSMSPHSNIDETKSLEAVTPNINTSNITPDHSADNTFSTINASESDHQFNDTLLSKLSLTDSTETIENNATVKHQQPVASSTVNSNKSSTDIRRATPVSTPVISKPSMTTTPRQINSASHSLSNPKHKQHKPKVKPSKPEAKSKPVSVKKSFPSKNPLKNSSPPKKQTEKSYYSSSSKKRKSGSNSGTLRMKDVFTSFVQNIKRNSQDDKRASSSSNNSSSSSITTALRISTPYNAKHIHHVGVDSKTGEYTGLPEEWEKLLTSSGISKREQQQNMQAVMDIVKFYQDVTETNGEDKMFKTFNTTTGLPGSPQVSTPPANSFNKFPPSTSDSHNYGSRTGTPMSNHVMSPTLNTDSSSANGKFIPSRPAPKPPSSASASAPIIKSPVMNSAANVSPLKQTHAPTTPNRTSPNRSSISRNATLKKEEQPLPPIPPTKSKTSPIISTAHTPQQVAQSPKAPAQETVTTPTSKPAQARSLSKELNEKKREERERRKKQLYAKLNEICSDGDPSTKYANLVKIGQGASGGVYTAYEIGTNVSVAIKQMNLEKQPKKELIINEILVMKGSKHPNIVNFIDSYVLKGDLWVIMEYMEGGSLTDVVTHCILTEGQIGAVCRETLSGLEFLHSKGVLHRDIKSDNILLSMEGDIKLTDFGFCAQINELNLKRTTMVGTPYWMAPEVVSRKEYGPKVDIWSLGIMIIEMIEGEPPYLNETPLRALYLIATNGTPKLKEPENLSSSLKKFLDWCLCVEPEDRASATELLHDEYITEIAEANSSLAPLVKLARLKKVAENMDADEDNDDDNDNEHINKTNNCDDNNDSKETVNLDVTEDDKQK
partner: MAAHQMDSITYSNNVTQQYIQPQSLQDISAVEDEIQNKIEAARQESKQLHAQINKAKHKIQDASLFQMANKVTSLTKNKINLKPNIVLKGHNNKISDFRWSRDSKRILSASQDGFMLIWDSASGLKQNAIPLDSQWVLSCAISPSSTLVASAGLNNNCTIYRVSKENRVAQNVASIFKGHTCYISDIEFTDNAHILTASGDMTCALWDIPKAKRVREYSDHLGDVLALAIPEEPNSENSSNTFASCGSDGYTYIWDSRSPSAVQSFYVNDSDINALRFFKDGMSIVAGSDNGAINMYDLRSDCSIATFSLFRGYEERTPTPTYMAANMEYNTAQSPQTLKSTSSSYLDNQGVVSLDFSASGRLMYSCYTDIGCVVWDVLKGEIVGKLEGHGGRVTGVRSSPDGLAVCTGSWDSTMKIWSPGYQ
B2: Guanine nucleotide-binding protein subunit beta (Saccharomyces cerevisiae), P18851 (parent)
chain: B1 partner
partner: B1 chain

Variants of: B1
Conditions: with gbb_yeast STE4, P18851

Variant	effect of a mutation on the interaction
S879A;S880A;P883A	decreasing interaction

Variants of: B2
Conditions: with ste20_yeast STE20, Q03497

Variant	effect of a mutation on the interaction
MAAHQMDSITYSNNVTQQYIQPQSLQDISAVEDEIQNKIEAARQESKQLHAQINDAKHKIQDASLFQMANKVTSLTKNKINLKPNIVLKGHNNKISDFRWSRDSKRILSASQDGFMLIWDSASGLKQNAIPLDSQWVLSCAISPSSTLVASAGLNNNCTIYRVSKENRVAQNVASIFKGHTCYISDIEFTDNAHILTASGDMTCALWDIPKAKRVREYSDHLGDVLALAIPEEPNSENSSNTFASCGSDGYTYIWDSRSPSAVQSFYVNDSDINALRFFKDGMSIVAGSDNGAINMYDLRSDCSIATFSLFRGYEERTPTPTYMAANMEYNTAQSPQTLKSTSSSYLDNQGVVSLDFSASGRLMYSCYTDIGCVVWDVLKGEIVGKLEGHGGRVTGVRSSPDGLAVCTGSWDSTMKIWSPGYQ [K55D]	decreasing interaction
MAAHQMDSITYSNNVTQQYIQPQSLQDISAVEDEIQNKIEAARQESKQLHAQINKAKHKIQNASLFQMANKVTSLTKNKINLKPNIVLKGHNNKISDFRWSRDSKRILSASQDGFMLIWDSASGLKQNAIPLDSQWVLSCAISPSSTLVASAGLNNNCTIYRVSKENRVAQNVASIFKGHTCYISDIEFTDNAHILTASGDMTCALWDIPKAKRVREYSDHLGDVLALAIPEEPNSENSSNTFASCGSDGYTYIWDSRSPSAVQSFYVNDSDINALRFFKDGMSIVAGSDNGAINMYDLRSDCSIATFSLFRGYEERTPTPTYMAANMEYNTAQSPQTLKSTSSSYLDNQGVVSLDFSASGRLMYSCYTDIGCVVWDVLKGEIVGKLEGHGGRVTGVRSSPDGLAVCTGSWDSTMKIWSPGYQ [D62N]	decreasing interaction
